Experimental data published in the DeepSol protein solubility set.

Assay: soluble on expression in E. coli; label from the status in PepcDB or PDB records
With “MHHHHHHKSTKILILGAGPAGFSAAKAALGKCDDITMINSEKYLPYYRPRLNEIIAKNKSIDDILIKKNDWYEKNNIKVITSEFATSIDPNNKLVTLKSGEKIKYEKLIIASGSIANKIKVPHADEIFSLYSYDDALKIKDECKNKGKAFIIGGGILGIELAQAIIDSGTPASIGIILEYPLERQLDRDGGLFLKDKLDRLGIKIYTNSNFEEMGDLIRSSCVITAVGVKPNLDFIKDTEIASKRGILVNDHMETSIKDIYACGDVAEFYGKNPGLINIANKQGEVAGLNACGEDASYSEIIPSPILKVSGISIISCGDIENNKPSKVFRSTQEDKYIVCMLKENKIDAAAVIGDVSLGTKLKKAIDSSKSFDNISSLDAILNNL” the “soluble on expression in E. coli” value was “soluble”.
In the case of “MHHHHHHMVGFGELKEEWRGEVVHLSWSPRAFLLKNFLSDEECDYIVEKARPKMVKSSVVDNESGKSVDSEIRTSTGTWFAKGEDSVISKIEKRVAQVTMIPLENHEGLQVLHYHDGQKYEPHYDYFHDPVNAGPEHGGQRVVTMLMYLTTVEEGGETVLPNAEQKVTGDGWSECAKRGLAVKPIKGDALMFYSLKPDGSNDPASLHGSCPTLKGDKWSATKWIHVAPIGGRH”, the “soluble on expression in E. coli” value is reported as “soluble”.
For “MHHHHHHSHMHHHHHHSHMSKYAELLAIIEELGKEIRPTYAGSKSAMERLKRGIIHARGLVREALAETERNARS”, the “soluble on expression in E. coli” value was “soluble”.
For “MHHHHHHSSGRENLYFQGMAKERRRAVLELLQRPGNARCADCGAPDPDWASYTLGVFICLSCSGIHRNIPQVSKVKSVRLDAWEEAQVEFMASHGNDAARARFESKVPSFYYRPTPSDCQLLREQWIRAKYERQEFIYPEKQEPYSAGYREGFLWKRGRDNGQFLSRKFVLTEREGALKYFNRNDAKEPKAVMKIEHLNATFQPAKIGHPHGLQVTYLKDNSTRNIFIYHEDGKEIVDWFNALRAARFHYLQVAFPGASDADLVPKLSRNYLKEGYMEKTGPKQTEGFRKRWFTMDDRRLMYFKDPLDAFARGEVFIGSKESGYTVLHGFPPSTQGHHWPHGITIVTPDRKFLFACETESDQREWVAAFQKAVDRPMLPQEYAVEAHFKHKP”, the “soluble on expression in E. coli” value was “soluble”.
For “MHHHHHHSSGVDLGTENLYFQSMASGANFEYIIAEKRGKNNTVGLIQLNRPKALNALCDGLIDELNQALKIFEEDPAVGAIVLTGGDKAFAAGADIKEMQNLSFQDCYSSKFLKHWDHLTQVKKPVIAAVNGYAFGGGCELAMMCDIIYAGEKAQFAQPEILIGTIPGAGGTQRLTRAVGKSLAMEMVLTGDRISAQDAKQAGLVSKICPVETLVEEAIQCAEKIASNSKIVVAMAKESVNAAFEMTLTEGSKLEKKLFYSTFATDDRKEGMTAFVEKRKANFKDQ”, the “soluble on expression in E. coli” value was “soluble”.
For “MHHHHHHSSGVDLGTENLYFQSMSAQNNAKVAVLGASGGIGQPLSLLLKNSPLVSRLTLYDIAHTPGVAADLSHIETKAAVKGYLGPEQLPDCLKGCDVVVIPAGVPRKPGMTRDDLFNTNATIVATLTAACAQHCPEAMICVIANPVNSTIPITAEVFKKHGVYNPNKIFGVTTLDIVRANTFVAELKGLDPARVNVPVIGGHAGKTIIPLISQCTPKVDFPQDQLTALTGRIQEAGTEVVKAKAGAGSATLSMAYAGARFVFSLVDAMNGKEGVVECSFVKSQETECTYFSTPLLLGKKGIEKNLGIGKVSSFEEKMISDAIPELKASIKKGEDFVKTLK”, the “soluble on expression in E. coli” value was “soluble”.
With “MHHHHHHSSGVDLGTENLYFQSMSFAVGMFKGQLTTDQVFPYPSVLNEEQTQFLKELVEPVSRFFEEVNDPAKNDALEMVEETTWQGLKELGAFGLQVPSELGGVGLCNTQYARLVEIVGMHDLGVGITLGAHQSIGFKGILLFGTKAQKEKYLPKLASGETVAAFCLTEPSSGSDAASIRTSAVPSPCGKYYTLNGSKLWISNGGLADIFTVFAKTPVTDPATGAVKEKITAFVVERGFGGITHGPPEKKMGIKASNTAEVFFDGVRVPSENVLGEVGSGFKVAMHILNNGRFGMAAALAGTMRGIIAKAVDHATNRTQFGEKIHNFGLIQEKLARMVMLQYVTESMAYMVSANMDQGATDFQIEAAISKIFGSEAAWKVTDECIQIMGGMGFMKEPGVERVLRDLRIFRIFEGTNDILRLFVALQGCMDKGKELSGLGSALKNPFGNAGLLLGEAGKQLRRRAGLGSGLSLSGLVHPELSRSGELAVRALEQFATVVEAKLIKHKKGIVNEQFLLQRLADGAIDLYAMVVVLSRASRSLSEGHPTAQHEKMLCDTWCIEAAARIREGMAALQSDPWQQELYRNFKSISKALVERGGVVTSNPLGF” the “soluble on expression in E. coli” value was “soluble”.
With “MHHHHHHSSGVDLGTENLYFQSNAMADCYLTEKKKNFIPIQPMMPDELPDWLDTQDARTQQWVKASGFVGLAGTICSIPESTGALQRVLLGVSDYEYSWDFGGLSKVLPPGAFQLNRDDFEDDEYYERALLAFGLGSYQFNAYRKRSPYLAKLFLPQAHRKRVTDWLTTIYLIRDLINTPAEDMGPSELAQAVKHVAKEFEAKVKIIESKDLETEFPAIYAVGRAGSRPPLLIDLKWGDIKAPKVTLVGKGVCFDSGGLDIKTPGGMLLMKKDMGGAAHALGLARMIMLQQLPVRLRLLIPAVENAIGSRSYRPGDVVQTRARKTIEITNTDAEGRVVLADALAEAVKEDPDLIIDFSTLTGAARIALGPNLPALFANQDSLAQALIDASLKTDDPLWRLPLFQPYRNYLKSEVADLTNSSQNRMAGAITAALFLQHFVSDQIPWAHFDIFAWNLEDLPGRPIGGEAMALRAVFHYLEQQYR” the “soluble on expression in E. coli” value was “soluble”.
In the case of “MHHHHHHSSGVDLGTENLYFQSNAMSSKIFCKSWGAEYIAADVVRFRLWATGQQKVMLRLAGKDQEMQANGDGWFTLDVAGVTPGTEYNFVLSDGMVVPDPASRAQKTDVNGPSYVVDPGSYTWRNTGWKGSRWEQAVVYEMHTGTFTPEGTFRAAIAKLPYLAELGVTVIEVMPVAQFGGERGWGYDGVLLYAPHSAYGTPDDFKAFIDAAHGYGLSVVLDIVLNHFGPEGNYLPLLAPAFFHKERMTPWGNGIAYDVDAVRRYIIEAPLYWLTEYHLDGLRFDAIDQIEDSSARHVLVEIAQRIREDITDRPIHLTTEDSRNIISLHPRDQDGNAPLFTAEWNDDFHNAVHVFATGETQAYYNDFADAPEKHLARALAEGFAYQGEISPQTGEPRGVKSTGQPPVAFVDFIQNHDQVGNRAQGDRLITLAGAERTKVLLATLLLSPHIPLLFMGEEYGESRPFLFFTDFHGDLARAVREGRAKEFADHAGENVPDPNAPETFQRSKLNWKQQHSEEGKAWLAFTRELLLLRQKHIVPLLSAARESSGTVLQTAPGFIAVSWRFPGGTLSLALNISATTVLLPDLPGKTLFAWPNESTGSLSQHSLIVRLAQGESAS”, the “soluble on expression in E. coli” value is reported as “soluble”.
In the case of “MHHHHHHSSGVDLGTENLYFQSNAMTIMLTPMQTEEFRSYLTYTTKHYAEEKVKAGTWLPEDAQLLSKQVFTDLLPRGLETPHHHLWSLKLNEKDIVGWLWIHAEPEHPQQEAFIYDFGLYEPYRGKGYAKQALAALDQAARSMGIRKLSLHVFAHNQTARKLYEQTGFQETDVVMSKKL”, the “soluble on expression in E. coli” value is reported as “soluble”.
In the case of “MHIAILGCTSQIAKDLIRSIYVYSQHDLILFGRTPQQTQSWLAENGITSRCSVNQYEEYPNIDHDVVINFVGIGDPSKAAAMGGSIFDITLHYDELVLNELKKYPDRRYLFLSSGAAYGSSFLEPADADTPSTININNLLPQEYYSVAKLHAECRHRSLKEYAIVDLRVFNVFSRTQDLEARFFITDIVRSIHSGTELITSSDMIYRDFMHPKDFYQLVERVLNAPPMNISLDCYSRQPVDKTTLLDEMKKTFGLSYRVKESNMSINATGIKPCYYSKNKRAAEFGYLPEYSSLETIIEETNAILGLQKTVLEHHHHHH”, the “soluble on expression in E. coli” value is reported as “soluble”.
For “MHIEFREFNPFDVWIWLKFSNVPSEREKQYVEEVFNSWFYLGKLGAFNAENLQVQDTGLDISYMDYDPSAYNKSFLALMHNMSEFEYEGEWGRCWFDLGTSDAIALDLLLNSLTQLSEEYVTIEILYIGGENSDWPVEDSETHANADSIYDY”, the “soluble on expression in E. coli” value was “not soluble”.
With “MHIVIVGAGAVGGFFGGLLHESGTKVTFVARGKSLDALQRRGMRLHDASGVRDIRVPVVEDLSHVPDADVVILATKTLGSVDVPKNLPKSAVLVTTQNSVEMPHIAVEALGVDRVIPGVVRSFLTKRGPAEAEFSGGIFTFTFGCMSEATRGIVDKLAHVLDRAGIEPVVHPAIMTDIWFKAMFVTCFGALGALVNQPLGVVRTTYRDDFKALINEVVTAGQAHGVDFPEDVVDRVLAFADAQPKGATSSMQRDLANGLPSELDAQAGAVVRMAQRVGVDARLHHLVGNVLSHKHSD” the “soluble on expression in E. coli” value was “soluble”.
